Tests used:
Test in all cases: cell_activity
[1] = biological target: FokI TALEN pair (Flavobacterium okeanokoites) (UniProt P14870); details: by Sanger sequencing
[2] = test system: T1, AN197 TALEN, purified, mPEG-5K-SH PEGylated (synthetic construct); details: HEK293FT
T1 sequence: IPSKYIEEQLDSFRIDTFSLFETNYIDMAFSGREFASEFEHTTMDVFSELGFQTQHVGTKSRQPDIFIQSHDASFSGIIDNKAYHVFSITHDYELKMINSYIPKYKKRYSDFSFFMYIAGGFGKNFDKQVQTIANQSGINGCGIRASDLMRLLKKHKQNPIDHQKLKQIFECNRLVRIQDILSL

[3] = test system: T2, AN197 TALEN pair (synthetic construct); details: primary T cells, GCD
T2 sequence: T1 sequence

Chain of UniProt P14870 (P14870 384-579): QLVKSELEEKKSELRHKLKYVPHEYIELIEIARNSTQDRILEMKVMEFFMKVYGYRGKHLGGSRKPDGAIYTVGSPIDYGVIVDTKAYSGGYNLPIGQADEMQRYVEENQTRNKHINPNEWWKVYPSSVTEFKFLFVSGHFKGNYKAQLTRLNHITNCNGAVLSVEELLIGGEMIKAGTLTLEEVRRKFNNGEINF

Row | Substance | activity [1] | activity [2] | activity [3]
1 | AAVS1 locus TALEN target | 100 % editing | < 75 % editing | > 80 % editing
2 | PD-1 target | – | – | > 80 % editing
3 | TIM3 target | – | – | > 80 % editing
4 | LAG3 target | – | – | > 80 % editing
5 | B2M target | – | – | > 80 % editing
